Measured values reported in patent US20180339059A1 (DINGFU BIOTARGET, published 2018).
Like-named read-outs stand apart in the source and are kept apart here.

T1: hOX40-muFc (human; mouse, UniProt P43489 29-216)
T1 construct: range 1-216; Expressed in HEK293, purified on Protein A; also called recombinant human OX40; not shown: mouse IgG1-Fc (muFc) domain, residue 98 to residue 324 of P01868
T1 sequence (looked up): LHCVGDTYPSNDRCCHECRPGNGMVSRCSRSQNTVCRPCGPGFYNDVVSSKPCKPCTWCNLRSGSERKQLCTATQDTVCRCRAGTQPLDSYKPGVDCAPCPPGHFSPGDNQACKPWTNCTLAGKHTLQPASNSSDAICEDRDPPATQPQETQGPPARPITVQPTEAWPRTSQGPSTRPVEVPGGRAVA

T2: hCD27-EGFP on HEK293 cells (human, UniProt P26842 20-260)
T2 construct: pcDNA4-hCD27-EGFP transfected into HEK293; not shown: EGFP, C5MKY7
T2 sequence (looked up): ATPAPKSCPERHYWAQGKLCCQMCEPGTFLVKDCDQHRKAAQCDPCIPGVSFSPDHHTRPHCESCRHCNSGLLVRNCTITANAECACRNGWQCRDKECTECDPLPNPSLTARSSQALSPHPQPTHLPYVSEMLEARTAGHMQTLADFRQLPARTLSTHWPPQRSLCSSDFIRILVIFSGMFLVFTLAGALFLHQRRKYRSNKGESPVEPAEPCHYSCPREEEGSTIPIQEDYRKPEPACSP


Experiments:
hOX40-muFc [1] = target: T1, hOX40-muFc; assay: ELISA, hOX40-muFc coated at 2 µg/ml, goat anti-human IgG-HRP; column C of the drawn 4-P fit table y=(A-D)/(1+(x/C)^B)+D; the axis prints no unit, ng/ml is from paragraph 210
Procedure: (§1) hOX40-muFc was diluted to 2 μg/ml with coating buffer (50 mM Na₂CO₃, NaHCO₃ pH 9.6), 100 μL/well, 4° C. overnight. After washing, blocking was performed using 3% BSA-PBS for 1 h at 37° C. The anti-hOX40 antibodies were diluted respectively from 2000 ng/ml and was diluted 2-fold in a total of 11 concentrations, with the diluent (1% BSA-PBS) as a control, and incubated at 37° C. for 2 h. Goat anti-human IgG-HRP conjugated was added and incubated for 1 h at 37° C. Soluble one-component TMB substrate developer solution is added, and the developing was performed in dark at room temperature for 5-10 min. 2N H₂SO₄ 50 μL/well was added to terminate the color development reaction. The OD of the obtained solution was determined at 450 nm-650 nm on MD SpectraMax Plus 384 microplate reader and SoftMaxPro v5.4 was used for processing data, making graphs and analysis. […] It can be seen from FIG. 5 and FIG. 6 that all the above variants of anti-OX40 21 # mAb can bind to OX40 and the affinity of the in vitro affinity-matured anti-OX40 21 # VHnew-L80 mAb and anti-OX40 21#H96-L80 mAb increased approximately two times compared to anti-OX40 21# mAb.

hOX40-muFc [2] = target: T1, hOX40-muFc; assay: ELISA, hOX40-muFc coated at 2 µg/ml, goat anti-human IgG-HRP
Procedure: as §1

hOX40-muFc [3] = target: T1, hOX40-muFc; assay: SPR, BIAcore X100; antibody captured by anti-human Fc on CM5 chip, OX40-muFc as analyte, 1:1 model
Procedure: (§2) The binding kinetics of anti-hOX40 antibody to recombinant human OX40 was measured by surface plasmon resonance (SRP) method using a BIAcore X100 instrument. Anti-human Fc antibody (no cross-identification against the mouse Fc) was conjugated on CM5 chip, the test antibody was diluted to 5 nM with running buffer and captured as a ligand by the anti-human Fc antibody on the CM5 chip. […] The injection time is 180 s, the dissociation time is 1800 s and the regeneration time is 60 s. The running buffer is HBS-EP+, and the regeneration buffer is 10 mM glycine-HCl (pH 2.0). The association rate (kₒₙ) and dissociation rate (koff) were calculated using a simple one-to-one Languir binding model (BIAcore Evaluation Software version 3.2). The equilibrium dissociation constant (kD) is calculated as the ratio koff/kₒₙ. It can be seen from Table 3 that the affinity of the affinity-matured anti-OX40 21 # H96-L80 mAb is increased approximately two times.

hOX40-muFc [4] = target: T1, hOX40-muFc; assay: ELISA, hOX40-muFc coated at 2 µg/ml, goat anti-human IgG-HRP; column C of the drawn 4-P fit table y=(A-D)/(1+(x/C)^B)+D; the axis prints no unit, ng/ml is from paragraph 210; remark: listed apart in the source
Procedure: as §1

hOX40-muFc [5] = target: T1, hOX40-muFc; assay: SPR, BIAcore X100; antibody captured by anti-human Fc on CM5 chip, OX40-muFc as analyte
Procedure: as §2

[6] = target: T3, hCD137-EGFP on HEK293 cells (human, UniProt Q07011 24-255); assay: flow cytometry on HEK293 cells expressing hCD137-EGFP, anti-hIg-PE
T3 construct: pcDNA4-hCD137-EGFP transfected into HEK293; not shown: EGFP, C5MKY7
Procedure: (§3) HEK293 cells expressing hOX40-EGFP, hCD137-EGFP and hCD27-EGFP obtained in Embodiment 1 were resuspended in 0.5% PBS-BSA Buffer and anti-hOX40 mAb protein was added and the mixture was incubated on ice for 20 min. After washing, secondary antibody anti-hlg-PE (eBioscience) was added, and the mixture was incubated on ice for 20 min. After washing, the cells were resuspended in 500 μl 0.5% PBS-BSA Buffer and detected by flow cytometry.

[7] = target: T2, hCD27-EGFP on HEK293 cells; assay: flow cytometry on HEK293 cells expressing hCD27-EGFP, anti-hIg-PE
Procedure: as §3

T3 sequence (Q07011 24-255): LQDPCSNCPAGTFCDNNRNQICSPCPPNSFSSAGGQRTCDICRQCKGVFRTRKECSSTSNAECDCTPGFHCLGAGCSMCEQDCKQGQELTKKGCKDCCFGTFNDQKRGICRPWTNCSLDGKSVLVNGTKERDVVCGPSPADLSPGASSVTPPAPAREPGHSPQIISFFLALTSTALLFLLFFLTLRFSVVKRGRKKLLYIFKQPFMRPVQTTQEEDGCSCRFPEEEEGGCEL

Row | EC50 (hOX40-muFc [1]) [µg/mL] | fold increase of affinity compared to anti-OX40 21# mAb (hOX40-muFc [2]) [times] | Kd (hOX40-muFc [3]) [nM] | koff (hOX40-muFc [3]) [s⁻¹] | kon (hOX40-muFc [3]) [M⁻¹ s⁻¹] | EC50 (hOX40-muFc [4]) [µg/mL] | Binder | other results
1 | 0.0432 |  |  |  |  |  | anti-OX40 21#H28H33 mAb (antibody, IgG4, V domains shown, Formatted as IgG 'according to the method in Embodiment 3' (IgG4); not shown: human immunoglobulin gamma4 (IgG4) constant region, P01861; human immunoglobulin kappa light chain constant region, P01834) VH: QVQLQQSGPGLVKPSQTLSLTCAISGDNVSSNGVSWDWIRQSPSRGLEWLGRTYYRSKWYNEYAVSVESRITINPDTSKNQFSLQLNSVTPEDTAIYFCVRNNYFFDLWGRGTLVTVSS VL: EIVLTQSPATLSLSPGERATLSCRASQSVSSYLAWYQQKPGQAPRLLIYDASDRATGIPARFSGSGSGTDFTLTISSLEPEDFAVYYCQLRSNWPPGYTFGQGTKVEIK | 
2 | 0.0609 |  |  |  |  |  | anti-OX40 21#H65 mAb (antibody, IgG4, V domains shown, Formatted as IgG according to Embodiment 3 (IgG4); not shown: human immunoglobulin gamma4 (IgG4) constant region, P01861; human immunoglobulin kappa light chain constant region, P01834) VH: QVQLQQSGPGLVKPSQTLSLTCAISGDSVSSNSVSWDWIRQSPSRGLEWLGRTYYRSKWYNEYAVSVENRITINPDTSKNQFSLQLNSVTPEDTAIYFCVRNNYFFDLWGRGTLVTVSS VL: EIVLTQSPATLSLSPGERATLSCRASQSVSSYLAWYQQKPGQAPRLLIYDASDRATGIPARFSGSGSGTDFTLTISSLEPEDFAVYYCQLRSNWPPGYTFGQGTKVEIK | 
3 |  | ~2 | 10.3 | 0.000342 | 33300 | 0.0134 | anti-OX40 21#VHnew-L80 mAb (antibody, IgG4, V domains shown, Formatted as IgG according to Embodiment 3 (IgG4); not shown: human immunoglobulin gamma4 (IgG4) constant region, P01861; human immunoglobulin kappa light chain constant region, P01834) VH: QVQLQQSGPGLVKPSQTLSLTCAISGDSVSSNGVSWDWIRQSPSRGLEWLGRTYYRSKWYNEYAVSVENRITINPDTSKNQFSLQLNSVTPEDTAIYFCVRNDYFFDLWGRGTLVTVSS VL: EIVLTQSPATLSLSPGERATLSCRASQSVGSYLAWYQQKPGQAPRLLIYDASNRATGIPARFSGSGSGTDFTLTISSLEPEDFAVYYCQQRSNWPPGYTFGQGTKVEIK | 
4 |  | ~2 | 7.9 | 0.000237 | 30000 | 0.0154 | anti-OX40 21#H96-L80 mAb (antibody, V domains shown, Formatted as IgG according to Embodiment 3 (IgG4); also called H96-L80 IgG4; not shown: human immunoglobulin gamma4 (IgG4) constant region, P01861; human immunoglobulin kappa light chain constant region, P01834) VH: QVQLQQSGPGLVKPSQTLSLTCAISGDSVSSNSVSWDWIRQSPSRGLEWLGRTYYRSKWYNEYAVSVESRITINPDTSKNQFSLQLNSVTPEDTAIYFCVRNDYFFDLWGRGTLVTVSS VL: EIVLTQSPATLSLSPGERATLSCRASQSVGSYLAWYQQKPGQAPRLLIYDASNRATGIPARFSGSGSGTDFTLTISSLEPEDFAVYYCQQRSNWPPGYTFGQGTKVEIK | fold increase of affinity (reference not given; O21 mAb by Table 3) (hOX40-muFc [5]): ~2 times
5 |  |  |  |  |  |  | O19 mAb (antibody, IgG4, V domains shown, IgG4, lambda; expressed in HEK293; not shown: human immunoglobulin gamma4 (IgG4) constant region, P01861; human immunoglobulin lambda light chain constant region, A0M8Q6) VH: QVQLVESEGGLVQPGGSLRLSCAASRFTFSNYWMSWVRQAPGKGLEWVANIKQDGSEKYYMDSVKGRFTISRDNAKNSLFLQMNTLRAEDTAMYYCTRVSFGVPTYDDFWRSYATPAWYFDFWGRGTLVTVSS VL: QSALIQPASVSGSPGQSITISCTGISSDDGYYKYVSWYQQYPGKAPKLMIYDVSKRPSGISFRFSGSKSGNTASLTISGLQAEDEADYYCSSYTSNMTPYVFGTGTKVTVL | binding result [6]: no binding; binding result [7]: no binding
